Data as given in patent US20250277032A1.

Key:
[1] = target: human ILT3 on the cell surface (recombinant human ILT3 exogenously overexpressed on HEK cells; ILT3 on THP-1 cells, DCs, macrophages) (human) (UniProt Q8NHJ6); test: flow cytometry on HEK cells overexpressing recombinant human ILT3
[2] = target: human ILT3 on the cell surface (recombinant human ILT3 exogenously overexpressed on HEK cells; ILT3 on THP-1 cells, DCs, macrophages) (human) (UniProt Q8NHJ6); test: cell-based or functional assay

Chain of fibronectin (FN1), P02751 32-2477 (ligand) (P02751 32-2477 limits assumed): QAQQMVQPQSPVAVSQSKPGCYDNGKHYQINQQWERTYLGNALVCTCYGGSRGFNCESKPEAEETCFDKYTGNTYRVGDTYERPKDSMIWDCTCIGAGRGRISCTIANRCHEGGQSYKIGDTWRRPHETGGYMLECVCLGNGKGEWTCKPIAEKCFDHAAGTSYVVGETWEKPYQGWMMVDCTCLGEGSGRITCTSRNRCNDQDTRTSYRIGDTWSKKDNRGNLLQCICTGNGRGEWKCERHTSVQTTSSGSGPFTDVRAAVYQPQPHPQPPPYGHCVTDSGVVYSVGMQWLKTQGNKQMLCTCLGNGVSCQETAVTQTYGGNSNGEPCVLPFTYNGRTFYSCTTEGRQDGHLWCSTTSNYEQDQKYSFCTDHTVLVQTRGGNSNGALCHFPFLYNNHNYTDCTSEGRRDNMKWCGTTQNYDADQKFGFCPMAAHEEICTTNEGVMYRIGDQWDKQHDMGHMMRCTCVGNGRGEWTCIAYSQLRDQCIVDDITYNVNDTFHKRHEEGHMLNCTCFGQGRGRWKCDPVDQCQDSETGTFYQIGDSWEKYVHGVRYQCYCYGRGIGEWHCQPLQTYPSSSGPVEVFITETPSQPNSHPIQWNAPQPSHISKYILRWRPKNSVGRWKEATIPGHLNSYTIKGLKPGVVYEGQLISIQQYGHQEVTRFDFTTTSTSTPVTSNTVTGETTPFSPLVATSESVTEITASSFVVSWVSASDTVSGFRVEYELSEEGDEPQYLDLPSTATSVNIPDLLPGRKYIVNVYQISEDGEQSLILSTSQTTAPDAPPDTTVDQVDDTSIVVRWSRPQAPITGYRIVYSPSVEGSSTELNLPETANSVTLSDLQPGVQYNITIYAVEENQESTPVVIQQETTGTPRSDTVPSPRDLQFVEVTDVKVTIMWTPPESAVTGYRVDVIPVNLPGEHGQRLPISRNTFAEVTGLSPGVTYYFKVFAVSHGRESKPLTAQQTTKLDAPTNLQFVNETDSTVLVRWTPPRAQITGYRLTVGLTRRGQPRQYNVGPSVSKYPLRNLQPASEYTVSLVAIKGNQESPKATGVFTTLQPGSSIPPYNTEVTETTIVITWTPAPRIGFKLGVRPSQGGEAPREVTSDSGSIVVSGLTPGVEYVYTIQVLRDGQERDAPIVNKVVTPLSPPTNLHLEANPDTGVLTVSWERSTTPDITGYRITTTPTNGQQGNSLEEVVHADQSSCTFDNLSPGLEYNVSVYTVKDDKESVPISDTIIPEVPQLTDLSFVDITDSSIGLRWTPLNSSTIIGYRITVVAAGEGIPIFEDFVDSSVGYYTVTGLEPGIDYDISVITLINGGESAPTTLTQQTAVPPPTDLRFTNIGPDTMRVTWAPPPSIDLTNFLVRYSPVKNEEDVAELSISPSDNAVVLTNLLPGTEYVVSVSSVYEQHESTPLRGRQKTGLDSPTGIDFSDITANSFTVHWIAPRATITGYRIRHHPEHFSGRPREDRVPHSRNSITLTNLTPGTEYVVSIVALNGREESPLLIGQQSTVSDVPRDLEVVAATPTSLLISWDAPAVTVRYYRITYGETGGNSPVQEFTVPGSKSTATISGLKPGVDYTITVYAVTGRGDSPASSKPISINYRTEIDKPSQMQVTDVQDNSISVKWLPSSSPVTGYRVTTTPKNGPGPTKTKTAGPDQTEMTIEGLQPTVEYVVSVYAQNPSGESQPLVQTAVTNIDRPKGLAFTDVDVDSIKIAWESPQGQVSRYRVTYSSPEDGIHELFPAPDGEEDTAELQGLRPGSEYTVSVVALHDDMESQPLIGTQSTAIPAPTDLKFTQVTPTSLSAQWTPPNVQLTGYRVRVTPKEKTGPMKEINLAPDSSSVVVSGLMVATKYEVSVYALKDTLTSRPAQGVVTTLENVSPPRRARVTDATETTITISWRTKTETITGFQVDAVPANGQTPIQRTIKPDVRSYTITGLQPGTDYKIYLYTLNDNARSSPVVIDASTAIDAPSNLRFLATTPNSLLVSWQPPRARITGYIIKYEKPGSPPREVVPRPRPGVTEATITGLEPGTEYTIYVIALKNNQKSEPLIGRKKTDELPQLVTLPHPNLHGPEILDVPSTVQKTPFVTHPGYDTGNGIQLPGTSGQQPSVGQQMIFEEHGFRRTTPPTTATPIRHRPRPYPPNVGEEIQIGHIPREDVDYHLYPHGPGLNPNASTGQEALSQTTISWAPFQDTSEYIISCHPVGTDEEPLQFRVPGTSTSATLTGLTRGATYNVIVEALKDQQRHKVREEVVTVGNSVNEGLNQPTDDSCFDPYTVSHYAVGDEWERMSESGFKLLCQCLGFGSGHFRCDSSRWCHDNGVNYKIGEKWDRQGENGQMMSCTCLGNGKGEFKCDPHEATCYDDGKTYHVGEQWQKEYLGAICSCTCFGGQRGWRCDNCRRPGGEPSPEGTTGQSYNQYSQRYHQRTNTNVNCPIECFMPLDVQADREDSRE

| average fluorescence [1] | decrease in IL-8 secretion from THP-1 cells activated with immobilized Rituximab [2] [%] | Substance |
| --- | --- | --- |
| 118 | – | ZM4.1 (commercial anti-ILT3 antibody) |
| – | 67 | fibronectin (FN1), P02751 32-2477 (ligand) |
